Assay results: patent publication US20240158497A1 (published 2024)
Values belong to the binder of their own block, whether it stands above or below them.

Target: T1, human gp130 expressed endogenously on IMR-32/Stat3-luc cells (human, UniProt P40189 23-918)
T1 construct: Endogenous gp130 of the human neuroblastoma line IMR-32
T1 sequence: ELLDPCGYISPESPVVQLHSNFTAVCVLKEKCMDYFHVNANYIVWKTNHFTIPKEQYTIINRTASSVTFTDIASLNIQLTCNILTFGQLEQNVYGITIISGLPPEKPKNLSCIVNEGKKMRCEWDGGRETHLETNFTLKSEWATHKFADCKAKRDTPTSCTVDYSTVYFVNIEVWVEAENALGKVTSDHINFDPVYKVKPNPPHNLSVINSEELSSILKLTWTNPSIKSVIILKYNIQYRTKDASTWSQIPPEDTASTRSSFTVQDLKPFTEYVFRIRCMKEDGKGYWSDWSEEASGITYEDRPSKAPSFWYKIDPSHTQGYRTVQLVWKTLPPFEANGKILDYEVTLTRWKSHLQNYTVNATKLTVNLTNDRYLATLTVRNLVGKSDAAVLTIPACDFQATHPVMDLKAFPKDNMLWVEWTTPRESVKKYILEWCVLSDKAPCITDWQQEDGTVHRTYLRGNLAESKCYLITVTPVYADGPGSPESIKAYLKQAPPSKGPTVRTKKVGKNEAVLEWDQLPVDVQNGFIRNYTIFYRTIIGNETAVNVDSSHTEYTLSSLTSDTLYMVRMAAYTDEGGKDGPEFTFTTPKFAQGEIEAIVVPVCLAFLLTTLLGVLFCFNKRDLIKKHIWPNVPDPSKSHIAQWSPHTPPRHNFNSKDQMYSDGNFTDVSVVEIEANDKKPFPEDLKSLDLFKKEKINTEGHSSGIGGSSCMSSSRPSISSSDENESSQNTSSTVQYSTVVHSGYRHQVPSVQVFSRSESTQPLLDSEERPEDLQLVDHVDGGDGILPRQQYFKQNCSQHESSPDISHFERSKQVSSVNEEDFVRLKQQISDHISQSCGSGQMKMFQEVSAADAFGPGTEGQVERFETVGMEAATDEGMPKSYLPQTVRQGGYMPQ
Test: FACS, 10 nM Ab, IMR-32/Stat3-luc cells, no hGP130.mmh
Description: In order to assess cell binding by anti-GP130 antibodies of the invention two cell lines were generated. One cell line generated was HEK293 cells stably over-expressing full length (FL) human gp130 (amino acids 1-918 of accession #P40189 with leucine at position 2 changed to valine, a natural variant) along with a luciferase reporter (Stat3-luciferase, Stat3-luc, SA Bioscience, #CLS-6028L). The cells were sorted twice using flow cytometry for high expression of gp130. It is known hereafter as HEK293/Stat3-luc/gp130-2 X Sort. IMR-32 cells (human Neuroblastoma, ATCC), were also evaluated for cell binding as these cells express gp130 endogenously and were used for bioassays. The cells used for binding were generated to stably express a luciferase reporter (Stat3-luciferase, Stat3-luc, SA Bioscience, #CLS-6028L), and are referred to hereafter as IMR-32/STAT3-Luc cells.
For the FACS analysis, 10 nM of the antibodies were used to stain 0.5×10⁶ cells/well of each cell type at 4° C. in PBS (without calcium and magnesium) containing 2% FBS for 30 minutes. IMR-32/STAT3-luc cells were incubated with 1 mg/mL mouse IgG for 30 minutes at 4° C. to block Fc receptors prior to adding the antibodies. To test whether the anti-gp130 antibody binding is specific for gp130 on the IMR-32 cells, antibodies were added to IMR-32/Stat3-luc cells with or without being pre-bound to 1000 nM of recombinant protein of the ecto-domain of human gp130 fused to myc-myc-his tag (hgp130.mmh) for 30 minutes at 25° C. […] Cells were fixed using BD CytoFix™ (Becton Dickinson, #554655) and analyzed on an IQue® (Intellicyt®) Flow Cytometer. Unstained and secondary antibody alone controls were also tested for all cell lines. The results were analyzed using ForeCyt® (IntelliCyt®) software to determine the geometric means of fluorescence for viable cells.

MFI - Normalized to Unstained Control: 5 ratio
B2: MAb16662 (antibody, V domains shown)
VH: EVQLVESGGGLVQPGGSLRLSCTASGFTFSNYAIFWVRQAPGKGLEYVSGISNNGVTKYYADSVRDRFTISRDNSRNTVSIQMDSLRTEDMAVYYCARENWGSDDGFDIWGQGTMVTVSS
VL: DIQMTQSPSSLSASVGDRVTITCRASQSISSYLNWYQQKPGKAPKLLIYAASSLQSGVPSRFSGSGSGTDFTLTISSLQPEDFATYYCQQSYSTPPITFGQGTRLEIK
notes: hIgG4 isotype control used

MFI - Normalized to Unstained Control: 6 ratio
B4: MAb16682 (antibody, V domains shown)
VH: EVQLVESGGGLVQPGGSLRLSCAASGFTFSTYWMNWVRQAPGKGLEWVANIKEDGSEKYYVDSVKGRFTISRDNAKNSLYLQMNSLRAEDTAVYYCAREGFGVVTYIWGQGTMVTVSS
VL: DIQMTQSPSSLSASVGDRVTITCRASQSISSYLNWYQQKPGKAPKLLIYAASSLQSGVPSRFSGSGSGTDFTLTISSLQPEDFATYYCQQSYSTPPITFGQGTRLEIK
notes: hIgG4 isotype control used

MFI - Normalized to Unstained Control: 9 ratio
B5: MAb16676 (antibody, V domains shown)
VH: QVQLVQSGAEVMKPGASVKVSCRASGYTFSSYDINWVRQAPGQGLEWMGWISTATGNTNYPQKVQGRVTMTTDTSTNTAYMELRSLRSDDTAVYYCTREGNSKGWLDPWGQGTLVTVSS
VL: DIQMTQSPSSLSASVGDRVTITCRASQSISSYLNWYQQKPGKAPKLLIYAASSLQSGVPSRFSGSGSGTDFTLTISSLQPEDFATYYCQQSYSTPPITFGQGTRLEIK
notes: hIgG4 isotype control used

MFI - Normalized to Unstained Control: 5 ratio
B6: MAb16665 (antibody, V domains shown)
VH: QVQLVESGGGVVQPGRSLRLACAASGFTFRSYGMHWVRQAPGKGLEWVAVIWYDGSNKYYTDSVKGRFTISRDNSKNTLYLQMNSLRAEDTAMYYCAIDKWATVTTYLFDYWGQGTLVTVSS
VL: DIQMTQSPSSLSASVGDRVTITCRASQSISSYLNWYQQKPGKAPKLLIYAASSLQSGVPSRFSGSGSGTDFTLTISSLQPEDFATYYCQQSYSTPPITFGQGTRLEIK
notes: hIgG4 isotype control used

MFI - Normalized to Unstained Control: 10 ratio
B8: MAb16673 (antibody, V domains shown)
VH: EVQLVQSGAEVKKPGESLKISCKGSGYSFTSYWIDWVRQMPGKGLEWMGIIYPDDSDTRYSPSFQGQVTMSVDKSISTAYLQWSSLKASDTAIYYCARHERGIVEAGTDYYYYYGMDVWGQGTTVTVSS
VL: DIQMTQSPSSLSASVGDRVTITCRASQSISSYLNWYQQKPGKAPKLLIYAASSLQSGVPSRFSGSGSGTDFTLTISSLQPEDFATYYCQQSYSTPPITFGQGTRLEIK
notes: hIgG4 isotype control used

MFI - Normalized to Unstained Control: 23 ratio
B11: MAb16666 (antibody, V domains shown)
VH: EVQLVESGGGLVQSGGSLRLSCAASGFTFSRYEMNWVRQAPGKGLEWVAYISNTGTTRDYSDSVKGRFTISRDNAKNSLYLQMSSLRVEDTAVYYCVREKFSGTSDWFDPWGQGTLVTVSS
VL: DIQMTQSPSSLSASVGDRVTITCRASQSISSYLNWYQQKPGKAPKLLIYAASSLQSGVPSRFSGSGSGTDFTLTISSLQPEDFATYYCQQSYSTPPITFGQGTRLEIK
notes: hIgG4 isotype control used

MFI - Normalized to Unstained Control: 8 ratio
B13: MAb16659 (antibody, V domains shown)
VH: QVQLVQSGPEVKKPGSSVKVSCKASGGTIDRNEITWVRQAPGQGLEWMGVIIPILGEAHYERKFQGRLTITMDESTSTAYMELSNLRSEDTAVYYCARERAARGYLDYWGQGTLVTVSS
VL: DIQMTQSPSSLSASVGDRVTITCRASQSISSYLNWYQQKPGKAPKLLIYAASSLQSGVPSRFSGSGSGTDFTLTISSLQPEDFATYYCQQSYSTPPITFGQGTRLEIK
notes: hIgG4 isotype control used

MFI - Normalized to Unstained Control: 6 ratio
B14: MAb16669 (antibody, V domains shown)
VH: EVQLVESGGGLVQPGGSLRLSCAASGFTFSSYAMNWVRQAPGKGLEWVSAISGSGDSTYYTDSVKGRFTISRDNSKNTLYLQMNTLRAEDTAVYYCAKEEIVMLVGATPGWFDPWGQGTLVTVSS
VL: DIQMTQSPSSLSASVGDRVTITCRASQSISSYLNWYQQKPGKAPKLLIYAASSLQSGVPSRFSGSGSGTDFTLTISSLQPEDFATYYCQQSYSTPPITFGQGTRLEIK
notes: hIgG4 isotype control used

MFI - Normalized to Unstained Control: 7 ratio
B15: MAb16664 (antibody, V domains shown)
VH: QVQLVQSGTEVKKPGSSVKVSCKASGGTFSTYPINWVRQAPGQGLEWMGGIIPIFGTASYAQKFQGRVAITTDESTSTAYMELNSLRSEDTAVYYCARERPNWGSNDYWGQGTLVTVSS
VL: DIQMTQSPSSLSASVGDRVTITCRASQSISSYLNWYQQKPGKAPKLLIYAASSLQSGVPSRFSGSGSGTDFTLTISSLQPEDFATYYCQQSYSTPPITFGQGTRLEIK
notes: hIgG4 isotype control used

MFI - Normalized to Unstained Control: 9 ratio
B16: MAb16683 (antibody, V domains shown)
VH: QVQLVESGGGLVKPGGSLRLSCAASGFTFSDYYMTWIRQTPGKGLDWVSYISSSGTNKYNADSVKGRFTISRDNAKNSLYLQMNSLRAEDTAVYYCVRDPPWGMDVWGQGTTVTVSS
VL: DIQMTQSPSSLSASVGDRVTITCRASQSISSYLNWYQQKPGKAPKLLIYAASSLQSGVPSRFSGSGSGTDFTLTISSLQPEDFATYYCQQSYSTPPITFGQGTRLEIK
notes: hIgG4 isotype control used

The next lines start with the binder.

B1: MAb16614 (antibody, V domains shown)
VH: QVQLVESGGGVVQPGGSLRLSCAASGFTFSTYDIHWVRQAPGKGLEWVAVISFDGSNRNYGDSVKGRFTISRDNSDNTLFLEMNNLRFEDTAVYYCAKEGYGVDFQHWGQGTLVTVSS
VL: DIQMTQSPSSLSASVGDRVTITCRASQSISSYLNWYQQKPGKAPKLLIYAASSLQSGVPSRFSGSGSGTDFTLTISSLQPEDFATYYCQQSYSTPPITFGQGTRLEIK
notes: hIgG4 isotype control used
MFI - Normalized to Unstained Control: 7 ratio

B3: MAb16636 (antibody, V domains shown)
VH: QLQLQESGPGLVKPSETLSLICTVSGGSISSNNYYWGWIRQPPGKGLEWIGNLYGSGSTYYNPSLKSRVTISVDTSKNQFSLKLSFVTAADTAVYHCARWDTNGGAFDIWGQGTMVTVSS
VL: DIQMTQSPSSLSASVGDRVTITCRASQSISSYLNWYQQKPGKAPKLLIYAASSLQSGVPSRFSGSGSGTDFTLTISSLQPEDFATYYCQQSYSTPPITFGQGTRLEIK
notes: hIgG4 isotype control used
MFI - Normalized to Unstained Control: 8 ratio

B7: MAb16656 (antibody, V domains shown)
VH: EVQLVESGGGLVQPGRSLRLSCAASGFTLDDFAMHWVRQAPGKGLEWVSGISWNSGNIGYADSVKGRFTISRDNARNSLYLQMNSLRAEDTALYYCTSGYYLYYAMDVWGQGTTVTVSS
VL: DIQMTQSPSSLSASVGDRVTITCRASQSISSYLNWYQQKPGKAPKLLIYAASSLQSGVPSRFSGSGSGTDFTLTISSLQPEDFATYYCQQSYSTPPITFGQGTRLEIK
notes: hIgG4 isotype control used
MFI - Normalized to Unstained Control: 12 ratio

B9: MAb16618 (antibody, V domains shown)
VH: QVQLQESGPGLVKPSETLSLTCTVSGGSISNYYWTWIRQPPGKGLEWIGHISNSGTTNYNPSLKSRVTISVDTSKNQFSLKLTSVTAADTAVYYCARLPLGIAAVDTDYYYYFGMDVWGQGTTVTVSS
VL: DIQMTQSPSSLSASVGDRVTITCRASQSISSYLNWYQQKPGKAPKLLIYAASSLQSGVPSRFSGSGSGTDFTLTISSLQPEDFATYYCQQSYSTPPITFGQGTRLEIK
notes: hIgG4 isotype control used
MFI - Normalized to Unstained Control: 7 ratio

B10: MAb16637 (antibody, V domains shown)
VH: QVQLVQSGAEVKKPGASVKVSCKASGYTFTSLGISWVRQAPGQGLEWMGWISAYSGNRDYAQKFQGRVTMTTDTSTSTAYMELRSLRSDDTAVYYCARSLRFDYWGQGTLVTVSS
VL: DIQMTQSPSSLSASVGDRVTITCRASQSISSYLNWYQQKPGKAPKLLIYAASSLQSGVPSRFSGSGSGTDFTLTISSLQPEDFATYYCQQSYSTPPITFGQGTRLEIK
notes: hIgG4 isotype control used
MFI - Normalized to Unstained Control: 9 ratio

B12: MAb16622 (antibody, V domains shown)
VH: EVQLVESGGGVVRPGGSLRLSCTASGFTFDDYGMSWVRQAPGKGLEWVSGINWNGGRTEYADAVKGRFIISRDNAKNSLYLQMNSLRAEDTALYFCARTELRWDYWGQGTLVTVSS
VL: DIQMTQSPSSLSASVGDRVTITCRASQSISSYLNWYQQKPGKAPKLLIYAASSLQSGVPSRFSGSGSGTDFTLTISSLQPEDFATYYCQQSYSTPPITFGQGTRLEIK
notes: hIgG4 isotype control used
MFI - Normalized to Unstained Control: 5 ratio

B17: MAb16623 (antibody, V domains shown)
VH: EVQLVESGGGLVQPGGSLRLSCAASGLTFSSYEMNWVRQAPGKGLEWVSHISSAGSTKYYADSVKGRFTISRDNAKNSLFLQMNSLRAEDTAIYYCAGYNYAYYYFGVDVWGQGTTVTVSS
VL: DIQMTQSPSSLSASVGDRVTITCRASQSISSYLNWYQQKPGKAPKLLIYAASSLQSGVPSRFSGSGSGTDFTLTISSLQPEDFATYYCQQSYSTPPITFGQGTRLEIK
notes: hIgG4 isotype control used
MFI - Normalized to Unstained Control: 8 ratio
